Measured values published in publication doi:10.1101/664102.
“And” between values parts separate entries of the source, which are not always exact repeats. Equal values may be shown once.

How the values were obtained:
Assay in all cases: fluorescence polarisation
[1] = target: fluorescein-labeled CaV1.2 IQ peptide WT (residues 1644-1666) (rat)
[2] = target: fluorescein-labeled CaV1.2 IQ peptide K1662E (rat)
[3] = target: fluorescein-labeled CaV1.2 IQ peptide K1647E (rat)
[4] = target: fluorescein-labeled CaV1.2 IQ peptide K1647A (rat)
[5] = target: fluorescein-labeled CaV1.2 IQ peptide WT (residues 1644-1666) (rat); remark: listed apart in the source

In the case of “apoCaM mutant E88K (from UniProt P0DP33 3-149) (natural protein)”, the fold decrease in binding affinity against the WT pair [1] is reported as > 5 fold.

For “apoCaM mutant F90A (from UniProt P0DP33 3-149) (natural protein)”, the fold decrease in binding affinity against WT apoCaM [1] was 3.3 fold.

“Ca2+-free calmodulin (apoCaM) (from UniProt P0DP33 1-149) (natural protein)” was tested, and the fold decrease in binding affinity against the WT pair [2] was > 5 fold and the Kd [1] was 10 µM and 2.6 µM.

B1: α-actinin-1_EF34 (residues 822-892) (domain or fragment)
chain: DTDTADQVMASFKILAGDKNYITMDELRRELPPDQAEYCIARMAPYTGPDSVPGALDYMSFSTALYGESDL
In the case of B1, the fold increase of Kd against the WT IQ peptide [3] is reported as 5 fold and the fold increase of Kd against the WT IQ peptide [4] is reported as 5 fold.

B2: α-actinin-1 EF3/4 mutant F833A (domain or fragment)
chain: DTDTADQVMASAKILAGDKNYITMDELRRELPPDQAEYCIARMAPYTGPDSVPGALDYMSFSTALYGESDL
B2 gave a fold decrease in binding affinity against WT α-actinin-1 EF3/4 [5] of 8 fold.

B3: α-actinin-1_EF34 mutant E847K/E851K (domain or fragment)
chain: DTDTADQVMASFKILAGDKNYITMDKLRRKLPPDQAEYCIARMAPYTGPDSVPGALDYMSFSTALYGESDL
B3 gave a fold increase of Kd against WT α-actinin-1 EF3/4 [5] of 12 fold.
